From article doi:10.1101/2024.06.26.600769 (bioRxiv, 2024)
No end group written: not given here.

How the values were obtained:
[1] = molecular target: T1, E. coli β-clamp (bacterial DNA sliding clamp), His6-tagged (E. coli, UniProt P0A988 1-366); experiment: NMR titration
[2] = molecular target: T1, E. coli β-clamp (bacterial DNA sliding …); experiment: ITC

T1 sequence (P0A988 whole entry): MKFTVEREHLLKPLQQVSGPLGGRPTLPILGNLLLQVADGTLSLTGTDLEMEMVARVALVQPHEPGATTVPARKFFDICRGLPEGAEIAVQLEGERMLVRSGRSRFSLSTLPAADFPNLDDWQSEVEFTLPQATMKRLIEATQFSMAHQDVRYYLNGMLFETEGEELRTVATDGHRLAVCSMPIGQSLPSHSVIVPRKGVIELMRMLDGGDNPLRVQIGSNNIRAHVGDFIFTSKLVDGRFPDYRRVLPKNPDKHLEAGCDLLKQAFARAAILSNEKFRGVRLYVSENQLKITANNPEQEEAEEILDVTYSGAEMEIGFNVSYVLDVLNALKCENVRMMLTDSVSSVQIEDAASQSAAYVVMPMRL

Binder	binding result [1]	binding result [2]
GWGEAPVCAQPLLIPL (not fully specified (C-terminus); printed as GWGEAPVCAQPLLIPL-NH2)	binds	
GWLDPQMERQLVLGL [pol IV* peptide, 15-mer of the polymerase IV C-terminus with an N-terminal Trp (GWLDPQMERQLVLGL)]	binds	
GWATQVDGTQMSLLSV (not fully specified (C-terminus); printed as GWATQVDGTQMSLLSV-NH2)	binds	
DWRGLIGSEQVELEFD		binds
